{"source": "paper PMC4417367", "target": "EGFP-GR C683A, L687-690A (rat) (UniProt P06536)", "experiment": "co-IP", "data": [{"substance": "heat shock protein 90 (natural protein)", "values": [{"measurement": "percent decrease of the HSP90/GR ratio against wild type EGFP-GR", "value": 62.7, "unit": "%"}]}]}
